The values below come from paper doi:10.1101/2022.11.04.515170, “Insights into cargo sorting by SNX32 in neuronal and non-neuronal cells: physiological implications in neurite outgrowth” (bioRxiv, 2022).

Holding throughout (settings): partners not purified
For one experiment, the target named is T1, GFP-SNX1 (UniProt Q13596 1-522).
T1 construct: Sorting nexin 1 (SNX1); pEGFP C1 SNX1, gift from Prof Peter J Cullen; also called GFP-SNX1 WT; source: HEK293T or HeLa, transfected, overexpressed, in lysate
T1 sequence (Q13596 whole entry): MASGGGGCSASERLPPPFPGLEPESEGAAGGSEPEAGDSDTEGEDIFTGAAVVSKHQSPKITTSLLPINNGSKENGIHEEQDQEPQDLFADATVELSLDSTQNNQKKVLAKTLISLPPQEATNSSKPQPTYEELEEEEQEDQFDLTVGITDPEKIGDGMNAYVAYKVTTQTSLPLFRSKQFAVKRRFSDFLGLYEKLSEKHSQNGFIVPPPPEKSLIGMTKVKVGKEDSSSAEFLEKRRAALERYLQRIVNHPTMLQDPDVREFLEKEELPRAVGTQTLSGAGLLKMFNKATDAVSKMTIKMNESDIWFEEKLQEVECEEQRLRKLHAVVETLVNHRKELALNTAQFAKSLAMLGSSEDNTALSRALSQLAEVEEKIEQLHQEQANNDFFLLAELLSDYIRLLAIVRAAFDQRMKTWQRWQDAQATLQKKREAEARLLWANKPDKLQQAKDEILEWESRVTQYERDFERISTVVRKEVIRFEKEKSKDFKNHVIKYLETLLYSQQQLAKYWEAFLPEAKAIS
The experiment is described as follows: co-IP; GST-GFP nanobody (GBP) on glutathione Sepharose beads, 2 h at 4°C with HEK293T cell lysate overexpressing GFP-tagged and HA-tagged SNX proteins; washed with PBS; immunoblot anti-GFP and anti-HA. A general note: In western blotting, separated proteins are transferred to a membrane and probed.

Another experiment addresses T2, GFP-SNX8 (UniProt Q9Y5X2 1-465).
T2 construct: Sorting nexin 8 (SNX8); source: HEK293T, transfected, overexpressed, in lysate
T2 sequence (looked up): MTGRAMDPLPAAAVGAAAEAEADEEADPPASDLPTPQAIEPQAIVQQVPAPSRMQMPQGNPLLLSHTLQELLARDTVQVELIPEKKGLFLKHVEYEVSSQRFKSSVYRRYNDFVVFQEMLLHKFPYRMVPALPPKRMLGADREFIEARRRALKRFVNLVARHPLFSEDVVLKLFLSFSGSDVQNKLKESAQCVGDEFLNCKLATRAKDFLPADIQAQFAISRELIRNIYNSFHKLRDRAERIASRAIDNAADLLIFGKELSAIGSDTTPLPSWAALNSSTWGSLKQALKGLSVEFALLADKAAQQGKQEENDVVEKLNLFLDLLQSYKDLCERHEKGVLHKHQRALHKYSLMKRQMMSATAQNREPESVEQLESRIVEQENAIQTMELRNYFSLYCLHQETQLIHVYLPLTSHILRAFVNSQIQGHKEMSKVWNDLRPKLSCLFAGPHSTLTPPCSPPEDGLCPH
The description is as above.

Another experiment concerns the target T3, GFP-SNX32 WT (UniProt Q86XE0 1-403).
T3 construct: Sorting nexin 32 (SNX32), full length; pEGFP C1 SNX32 FL, gift from Prof Peter J Cullen; also called GFP-SNX32 wild type; GFP-tagged SNX32; source: HEK293T or HeLa, transiently transfected, in lysate; SH-SY5Y, lentivirally transduced, stably expressing, in lysate
T3 sequence (looked up): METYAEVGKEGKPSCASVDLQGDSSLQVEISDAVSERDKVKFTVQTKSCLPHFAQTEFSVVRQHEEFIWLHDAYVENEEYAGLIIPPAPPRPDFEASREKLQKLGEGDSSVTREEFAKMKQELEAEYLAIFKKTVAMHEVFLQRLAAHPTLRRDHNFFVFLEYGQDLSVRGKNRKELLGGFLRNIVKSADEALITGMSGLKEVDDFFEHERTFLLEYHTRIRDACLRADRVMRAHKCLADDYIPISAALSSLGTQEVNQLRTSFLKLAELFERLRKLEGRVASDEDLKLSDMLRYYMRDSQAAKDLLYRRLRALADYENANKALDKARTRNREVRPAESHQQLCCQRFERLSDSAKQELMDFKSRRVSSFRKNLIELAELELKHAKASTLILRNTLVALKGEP
The experiment is described as above.

Another experiment deals with T4, GFP-SNX4 S448R (UniProt O95219 1-450, S448R).
T4 construct: Sorting nexin 4 (SNX4) with S448R in the BAR domain, by site directed mutagenesis of GFP-tagged SNX4; also called pEGFP SNX4S448R; source: HeLa, transfected, overexpressed, in lysate
T4 sequence (looked up): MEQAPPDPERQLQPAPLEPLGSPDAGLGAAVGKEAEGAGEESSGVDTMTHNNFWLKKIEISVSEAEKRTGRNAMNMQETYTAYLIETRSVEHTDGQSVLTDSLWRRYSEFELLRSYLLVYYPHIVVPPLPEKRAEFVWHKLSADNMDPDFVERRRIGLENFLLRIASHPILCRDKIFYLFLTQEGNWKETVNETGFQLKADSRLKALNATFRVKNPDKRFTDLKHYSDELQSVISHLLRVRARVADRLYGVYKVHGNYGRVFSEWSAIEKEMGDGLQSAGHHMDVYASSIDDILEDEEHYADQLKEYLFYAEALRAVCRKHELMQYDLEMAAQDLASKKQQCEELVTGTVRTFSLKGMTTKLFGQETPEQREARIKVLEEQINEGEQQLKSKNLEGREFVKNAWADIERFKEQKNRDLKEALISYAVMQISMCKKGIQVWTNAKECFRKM
The experiment can be described thus: co-IP; GST-GFP nanobody (GBP) on glutathione Sepharose beads, 2 h at 4°C with HeLa cell lysate overexpressing GFP-SNX4 (WT or mutant) and HA-SNX32 (WT or mutant); immunoblot anti-GFP and anti-HA.

The target of another experiment is T5, GFP-SNX4 Y258E (UniProt O95219 1-450, Y258E).
T5 construct: Sorting nexin 4 (SNX4) with Y258E in the BAR domain, by site directed mutagenesis of GFP-tagged SNX4; also called pEGFP SNX4Y258E; source: HeLa, transfected, overexpressed, in lysate
T5 sequence (looked up): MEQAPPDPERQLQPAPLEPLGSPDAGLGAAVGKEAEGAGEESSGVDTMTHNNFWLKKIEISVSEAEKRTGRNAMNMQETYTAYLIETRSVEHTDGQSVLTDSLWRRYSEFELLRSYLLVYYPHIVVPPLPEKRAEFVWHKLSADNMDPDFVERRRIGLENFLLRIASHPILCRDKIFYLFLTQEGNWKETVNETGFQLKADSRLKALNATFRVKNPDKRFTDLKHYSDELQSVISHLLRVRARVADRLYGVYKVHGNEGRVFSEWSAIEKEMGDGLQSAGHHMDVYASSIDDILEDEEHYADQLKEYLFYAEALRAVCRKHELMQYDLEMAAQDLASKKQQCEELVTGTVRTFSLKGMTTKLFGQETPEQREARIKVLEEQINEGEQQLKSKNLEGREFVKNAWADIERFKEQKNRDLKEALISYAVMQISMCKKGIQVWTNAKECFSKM
The experiment is described as above.

For another experiment, the target named is T6, GFP-SNX4 (UniProt O95219 1-450).
T6 construct: Sorting nexin 4 (SNX4); pEGFP C1 SNX4, gift from Prof Peter J Cullen; also called GFP-SNX4 WT; source: HEK293T or HeLa, transfected, overexpressed, in lysate
T6 sequence (looked up): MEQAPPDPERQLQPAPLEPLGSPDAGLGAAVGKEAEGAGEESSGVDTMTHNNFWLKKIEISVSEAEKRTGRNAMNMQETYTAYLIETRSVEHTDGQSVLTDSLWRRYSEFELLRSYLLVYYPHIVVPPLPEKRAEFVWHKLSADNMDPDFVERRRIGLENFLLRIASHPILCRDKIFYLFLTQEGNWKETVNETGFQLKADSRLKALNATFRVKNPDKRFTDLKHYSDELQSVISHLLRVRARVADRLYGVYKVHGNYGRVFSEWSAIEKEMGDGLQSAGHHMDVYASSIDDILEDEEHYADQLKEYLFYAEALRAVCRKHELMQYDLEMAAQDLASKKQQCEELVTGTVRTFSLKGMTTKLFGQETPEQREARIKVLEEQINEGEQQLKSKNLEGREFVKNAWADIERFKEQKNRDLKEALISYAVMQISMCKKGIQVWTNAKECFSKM
The experiment is described as above.

B1: HA-SNX32 FL (natural protein, UniProt Q86XE0 1-403, looked up)
chain: METYAEVGKEGKPSCASVDLQGDSSLQVEISDAVSERDKVKFTVQTKSCLPHFAQTEFSVVRQHEEFIWLHDAYVENEEYAGLIIPPAPPRPDFEASREKLQKLGEGDSSVTREEFAKMKQELEAEYLAIFKKTVAMHEVFLQRLAAHPTLRRDHNFFVFLEYGQDLSVRGKNRKELLGGFLRNIVKSADEALITGMSGLKEVDDFFEHERTFLLEYHTRIRDACLRADRVMRAHKCLADDYIPISAALSSLGTQEVNQLRTSFLKLAELFERLRKLEGRVASDEDLKLSDMLRYYMRDSQAAKDLLYRRLRALADYENANKALDKARTRNREVRPAESHQQLCCQRFERLSDSAKQELMDFKSRRVSSFRKNLIELAELELKHAKASTLILRNTLVALKGEP
notes: Sorting nexin 32 (SNX32), full length (FL); pcDNA3 HA N(I) SNX32 FL, subcloned from pEGFP C1 SNX32 FL; also called HA-SNX32 WT; Sorting nexin 32; source: HEK293T or HeLa, transfected, overexpressed, in lysate
For B1, the “ratio of HA to GFP band intensity” value with GFP-SNX1 stood at 0.98; in the experiment with GFP-SNX8, 0.62; with GFP-SNX32 WT it was 0.85; in the experiment with GFP-SNX4 S448R, 0.23; with GFP-SNX4 Y258E, 0.33.

B2: HA-SNX32 R220E (natural protein, UniProt Q86XE0 1-403, looked up)
chain: METYAEVGKEGKPSCASVDLQGDSSLQVEISDAVSERDKVKFTVQTKSCLPHFAQTEFSVVRQHEEFIWLHDAYVENEEYAGLIIPPAPPRPDFEASREKLQKLGEGDSSVTREEFAKMKQELEAEYLAIFKKTVAMHEVFLQRLAAHPTLRRDHNFFVFLEYGQDLSVRGKNRKELLGGFLRNIVKSADEALITGMSGLKEVDDFFEHERTFLLEYHTEIRDACLRADRVMRAHKCLADDYIPISAALSSLGTQEVNQLRTSFLKLAELFERLRKLEGRVASDEDLKLSDMLRYYMRDSQAAKDLLYRRLRALADYENANKALDKARTRNREVRPAESHQQLCCQRFERLSDSAKQELMDFKSRRVSSFRKNLIELAELELKHAKASTLILRNTLVALKGEP
notes: SNX32 with R220E, by site directed mutagenesis of HA-tagged SNX32; source: HeLa, transfected, overexpressed, in lysate
Take B2: the “ratio of HA to GFP band intensity” value in the experiment with GFP-SNX4 turned out to be 1.02.

B3: HA-SNX32 E256R (natural protein, UniProt Q86XE0 1-403, looked up)
chain: METYAEVGKEGKPSCASVDLQGDSSLQVEISDAVSERDKVKFTVQTKSCLPHFAQTEFSVVRQHEEFIWLHDAYVENEEYAGLIIPPAPPRPDFEASREKLQKLGEGDSSVTREEFAKMKQELEAEYLAIFKKTVAMHEVFLQRLAAHPTLRRDHNFFVFLEYGQDLSVRGKNRKELLGGFLRNIVKSADEALITGMSGLKEVDDFFEHERTFLLEYHTRIRDACLRADRVMRAHKCLADDYIPISAALSSLGTQRVNQLRTSFLKLAELFERLRKLEGRVASDEDLKLSDMLRYYMRDSQAAKDLLYRRLRALADYENANKALDKARTRNREVRPAESHQQLCCQRFERLSDSAKQELMDFKSRRVSSFRKNLIELAELELKHAKASTLILRNTLVALKGEP
notes: SNX32 with E256R, by site directed mutagenesis of HA-tagged SNX32; source: HeLa, transfected, overexpressed, in lysate
For B3, the “ratio of HA to GFP band intensity” value in the experiment with GFP-SNX4 came to 0.66.

B4: HA-SNX32 Q259R (natural protein, UniProt Q86XE0 1-403, looked up)
chain: METYAEVGKEGKPSCASVDLQGDSSLQVEISDAVSERDKVKFTVQTKSCLPHFAQTEFSVVRQHEEFIWLHDAYVENEEYAGLIIPPAPPRPDFEASREKLQKLGEGDSSVTREEFAKMKQELEAEYLAIFKKTVAMHEVFLQRLAAHPTLRRDHNFFVFLEYGQDLSVRGKNRKELLGGFLRNIVKSADEALITGMSGLKEVDDFFEHERTFLLEYHTRIRDACLRADRVMRAHKCLADDYIPISAALSSLGTQEVNRLRTSFLKLAELFERLRKLEGRVASDEDLKLSDMLRYYMRDSQAAKDLLYRRLRALADYENANKALDKARTRNREVRPAESHQQLCCQRFERLSDSAKQELMDFKSRRVSSFRKNLIELAELELKHAKASTLILRNTLVALKGEP
notes: SNX32 with Q259R, by site directed mutagenesis of HA-tagged SNX32; source: HeLa, transfected, overexpressed, in lysate
As to B4, in the experiment with GFP-SNX4, the “ratio of HA to GFP band intensity” value came out at 0.75.

B5: HA-SNX32 R366E (natural protein, UniProt Q86XE0 1-403, looked up)
chain: METYAEVGKEGKPSCASVDLQGDSSLQVEISDAVSERDKVKFTVQTKSCLPHFAQTEFSVVRQHEEFIWLHDAYVENEEYAGLIIPPAPPRPDFEASREKLQKLGEGDSSVTREEFAKMKQELEAEYLAIFKKTVAMHEVFLQRLAAHPTLRRDHNFFVFLEYGQDLSVRGKNRKELLGGFLRNIVKSADEALITGMSGLKEVDDFFEHERTFLLEYHTRIRDACLRADRVMRAHKCLADDYIPISAALSSLGTQEVNQLRTSFLKLAELFERLRKLEGRVASDEDLKLSDMLRYYMRDSQAAKDLLYRRLRALADYENANKALDKARTRNREVRPAESHQQLCCQRFERLSDSAKQELMDFKSREVSSFRKNLIELAELELKHAKASTLILRNTLVALKGEP
notes: SNX32 with R366E, by site directed mutagenesis of HA-tagged SNX32; source: HeLa, transfected, overexpressed, in lysate
Consider B5, for which, in the experiment with GFP-SNX4, the “ratio of HA to GFP band intensity” value was determined as 0.49.
